What all share (test): SPR, captured antibody, Sema3A domain analyte
A general note: In SPR one partner is held on a chip, and binding of the other changes the refractive index at the surface.

Test [1] deals with T1, Mouse Semaphorin3A-Sema Domain, TPP-19069 (mouse, UniProt O08665 21-569).
T1 construct: produced inhouse
T1 sequence: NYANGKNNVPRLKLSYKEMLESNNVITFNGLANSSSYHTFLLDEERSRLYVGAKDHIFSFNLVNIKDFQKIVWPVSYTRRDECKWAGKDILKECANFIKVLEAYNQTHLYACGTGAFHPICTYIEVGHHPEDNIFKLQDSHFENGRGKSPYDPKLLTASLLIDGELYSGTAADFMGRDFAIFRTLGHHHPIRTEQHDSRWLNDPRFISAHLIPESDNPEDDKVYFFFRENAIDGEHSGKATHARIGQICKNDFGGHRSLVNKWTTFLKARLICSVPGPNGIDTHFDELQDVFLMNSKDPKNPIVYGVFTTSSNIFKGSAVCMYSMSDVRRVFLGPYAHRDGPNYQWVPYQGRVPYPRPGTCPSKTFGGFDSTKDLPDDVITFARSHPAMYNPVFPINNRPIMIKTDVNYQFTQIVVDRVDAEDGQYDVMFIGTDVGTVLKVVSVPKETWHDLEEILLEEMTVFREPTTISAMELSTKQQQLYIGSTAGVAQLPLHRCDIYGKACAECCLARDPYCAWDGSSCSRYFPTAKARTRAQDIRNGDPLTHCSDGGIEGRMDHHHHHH
On the procedure: (§1) To assess the binding kinetics and affinity of anti-Sema3A antibodies as well as their species cross-reactivity profile, binding assays were conducted using surface plasmon resonance (SPR). Binding assays were performed on a Biacore T200 instrument or on a Biacore 8K+ instrument (Cytiva) at 25° C. using assay buffer HBS P+, 300 mM NaCl, 0.75 mM CaCl₂, 2.5 mM MgCl₂, 1 mg/ml BSA, 0.05% NaN₃. Antibodies were captured either via anti-human Fc IgGs (“Human antibody capture kit”, Order No. BR100839, Cytiva) or in case of Fc-tagged analytes by anti-human Fab IgGs (“Human Fab capture kit”, Order No. 28958325, Cytiva) covalently amine coupled to a Series S CM5 sensor chip (Cytiva). The amine coupling was carried out according to the manufacturer's instructions using 1-ethyl-3-(3-dimethylaminopropyl) carbodiimide hydrochloride (EDC), N-hydroxysuccinimide (NHS) and ethanolamine HCl, pH 8.5 (“Amine Coupling Kit” BR-1000-50, Cytiva.). For phage display hits Fc-tagged human and mouse Sema3A was used as analytes in a concentration range from 1.56-200 nM. Human, mouse, cynomolgus, rat, dog and pig monovalent Sema3A domain were used as analytes in a concentration series from […] in multi cycle kinetics mode or in 100 nM for binding analysis only. The sensor surface was regenerated with glycine pH 2.0 after each antigen injection. Obtained sensorgrams were double referenced (subtraction of reference flow cell signal and buffer injection) and were fitted to a 1:1 Langmuir binding model to derive kinetic data using the Biacore T200 Evaluation software.

Test [2] concerns the target T2, Rat Semaphorin3A-Sema Domain, TPP-19120 (rat, UniProt Q63548 21-569).
T2 construct: produced inhouse
T2 sequence: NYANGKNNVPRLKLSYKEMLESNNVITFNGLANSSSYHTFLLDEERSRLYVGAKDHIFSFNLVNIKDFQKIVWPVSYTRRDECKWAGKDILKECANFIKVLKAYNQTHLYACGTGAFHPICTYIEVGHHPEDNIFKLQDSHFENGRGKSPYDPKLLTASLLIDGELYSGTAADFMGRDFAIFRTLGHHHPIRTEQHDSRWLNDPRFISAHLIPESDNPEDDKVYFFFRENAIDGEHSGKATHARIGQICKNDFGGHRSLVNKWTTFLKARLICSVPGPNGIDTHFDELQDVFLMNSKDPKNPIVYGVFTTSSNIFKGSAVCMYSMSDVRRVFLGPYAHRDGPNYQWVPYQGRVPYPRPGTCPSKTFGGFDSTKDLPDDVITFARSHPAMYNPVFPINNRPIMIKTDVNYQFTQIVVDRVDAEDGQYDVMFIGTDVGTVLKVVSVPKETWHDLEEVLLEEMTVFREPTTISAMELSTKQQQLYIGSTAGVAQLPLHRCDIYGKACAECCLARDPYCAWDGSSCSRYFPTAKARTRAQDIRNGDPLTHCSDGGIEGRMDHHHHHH
On the procedure: as §1

Test [3] deals with T3, Cyno Semaphorin3A-Sema Domain, TPP-19122 (cynomolgus (Macaca fascicularis), UniProt Q63548 21-569 (rat entry), limits assumed).
T3 construct: produced inhouse
T3 chain: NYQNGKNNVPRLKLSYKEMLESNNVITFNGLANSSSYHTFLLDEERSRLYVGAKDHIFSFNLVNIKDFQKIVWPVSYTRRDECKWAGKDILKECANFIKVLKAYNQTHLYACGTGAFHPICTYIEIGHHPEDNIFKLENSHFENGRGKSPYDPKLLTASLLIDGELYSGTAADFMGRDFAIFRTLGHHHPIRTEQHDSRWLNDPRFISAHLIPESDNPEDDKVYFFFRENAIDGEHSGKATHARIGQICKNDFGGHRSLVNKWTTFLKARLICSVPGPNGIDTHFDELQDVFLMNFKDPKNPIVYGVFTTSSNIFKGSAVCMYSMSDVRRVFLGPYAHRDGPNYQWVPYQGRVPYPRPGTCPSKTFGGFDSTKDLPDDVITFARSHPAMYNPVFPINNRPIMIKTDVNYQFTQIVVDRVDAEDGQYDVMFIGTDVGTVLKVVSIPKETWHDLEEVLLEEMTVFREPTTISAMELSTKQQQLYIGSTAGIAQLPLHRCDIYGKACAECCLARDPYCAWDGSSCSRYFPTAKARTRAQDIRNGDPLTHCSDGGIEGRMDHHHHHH
The protocol: as §1

B1: TPP-30788 (antibody, human IgG1, kappa, V domains shown)
VH: EVQLVESGGGLVQPGGSLRLSCAASGFTFSSYYMSWVRQAPGKGLEWVSTIIKSGGYAYYPDSVKDRFTISRDNSKNTLYLQMSSLRAEDTAVYYCVRGGQGAMDYWGQGTTVTVSS
VL: EIVLTQSPATLSLSPGERATLSCRASQSIGDYLHWYQQKPGQAPRLLIKYASQSISGIPARFSGSGSGTDFTLTITSLEPEDFAVYYCQQGYSFPYTFGGGTKLEIKR
notes: prior art, WO 2020/225400; also called BI clone I; Böhringer (BI) Clone I
In general, Kd refers to a measure of binding affinity in units of concentration. A high value points to weaker binding. As for B1, the figures for the Kd in test [1], in test [2] and in test [3] were 0.043 nM, 0.026 nM and 0.078 nM, respectively.

B2: TPP-30789 (antibody, human IgG1, kappa, V domains shown)
VH: EVQLVESGGGLVQPGGSLRLSCAASGFPFSSYYMSWVRQAPGKGLEWVSTIIKSGGYAYYPDSVKDRFTISRDNSKNTLYLQMSSLRAEDTAVYYCVRGGQGAMDYWGQGTTVTVSS
VL: EIVLTQSPATLSLSPGERATLSCRASQSIGDYLHWYQQKPGQAPRLLIKYASQSISGIPARFSGSGSGTDFTLTITSLEPEDFAVYYCQQGYSFPYTFGGGTKLEIKR
notes: prior art, WO 2020/225400; also called BI clone II; Böhringer (BI) Clone II
For the molecule B2, the Kd in test [1] was found to be 0.042 nM; in test [2] it was 0.026 nM; in test [3], 0.079 nM.

B3: TPP-17755 (antibody, human IgG1, lambda, V domains shown)
VH: EVQLLESGGGLVQTGGSLRLSCAASGFTFSDYAMSWVRQAPGKGLEWVSWIYYDSGSKYYADSVKGRFTISRDNSKNTLYLQMNSLRAEDTAVYYCAKLNGDFDYWGQGTLVTVSS
VL: QSVLTQPPSASGTPGQRVTISCSGSSSNIGNNDVSWYQQLPGTAPKLLIYADSHRPSGVPDRFSGSKSGTSASLAISGLRSEDEADYYCGAWDSSLSGYVFGGGTKLTVLG
notes: also called Samsung; Samsung Prior Art F11
Consider B3, for which the Kd in test [1] stood at 3.9 nM; in test [2], 5.4 nM; in test [3], 14 nM.

B4: TPP-23337 (antibody, human IgG4 S228P, lambda, V domains shown)
VH: EVQLLESGGGLVQPGGSLRLSCAASGFTFSSYAMSWVRQAPGKGLEWVSAIGYGGDTYYADSVKGRFTISRDNSKNTLYLQMNSLRAEDTAVYYCARRDDYTSRDAFDYWGQGTLVTVSS
VL: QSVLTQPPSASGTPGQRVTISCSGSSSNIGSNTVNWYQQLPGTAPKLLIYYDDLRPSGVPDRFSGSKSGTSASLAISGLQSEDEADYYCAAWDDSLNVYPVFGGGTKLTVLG
For the molecule B4, the Kd in test [1] was determined as 0.05 nM; in test [2], 0.11 nM; in test [3], 0.026 nM.

B5: TPP-15370 (antibody, human IgG1, lambda, V domains shown)
VH: EVQLLESGGGLVQPGGSLRLSCAASGFTFSSYGMHWVRQAPGKGLEWVSAIGTGGDTYYADSVMGRFTISRDNSKNTLYLQMNSLRAEDTAVYYCARRDDYTSRDAFDVWGQGTLVTVSS
VL: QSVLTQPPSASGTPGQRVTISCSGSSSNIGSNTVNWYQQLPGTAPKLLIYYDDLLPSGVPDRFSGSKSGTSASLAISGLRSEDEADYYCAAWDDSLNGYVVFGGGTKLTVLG
notes: human IgG1; also called IgG1, hit from panning; parental mAb
For the molecule B5, the Kd in test [1] stood at 7.2 nM; in test [2] it was 14 nM; in test [3], 40 nM.

B6: TPP-23345 (antibody, human IgG4 S228P, lambda, V domains shown)
VH: EVQLLESGGGLVQPGGSLRLSCAASGFTFSSYAMSWVRQAPGKGLEWVSAIGYGGDTYYADSVKGRFTISRDNSKNTLYLQMNSLRAEDTAVYYCARRDDYTSRDAFDYWGQGTLVTVSS
VL: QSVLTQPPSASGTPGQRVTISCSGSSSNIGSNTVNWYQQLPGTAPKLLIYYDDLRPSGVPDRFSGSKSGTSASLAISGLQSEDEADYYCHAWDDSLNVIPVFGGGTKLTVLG
In the case of B6, the Kd in test [1] is 0.063 nM; in test [3], 0.062 nM.

B7: TPP-23340 (antibody, human IgG4 S228P, lambda, V domains shown)
VH: EVQLLESGGGLVQPGGSLRLSCAASGFTFSSYAMSWVRQAPGKGLEWVSAIGYGGDTYYADSVKGRFTISRDNSKNTLYLQMNSLRAEDTAVYYCARRDDYTSRDAFDYWGQGTLVTVSS
VL: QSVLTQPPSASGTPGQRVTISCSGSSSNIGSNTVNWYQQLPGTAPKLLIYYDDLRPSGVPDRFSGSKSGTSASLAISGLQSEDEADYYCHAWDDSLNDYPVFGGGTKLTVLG
For the molecule B7, the results for the Kd in test [1] and in test [3] were 0.059 nM and 0.06 nM, respectively.

B8: TPP-23373 (antibody, human IgG4 S228P, lambda, V domains shown)
VH: EVQLLESGGGLVQPGGSLRLSCAASGFTFYSYAMSWVRQAPGKGLEWVSAIGYGGDTYYADSVKGRFTISRDNSKNTLYLQMNSLRAEDTAVYYCARRDDYTSRDAFDYWGQGTLVTVSS
VL: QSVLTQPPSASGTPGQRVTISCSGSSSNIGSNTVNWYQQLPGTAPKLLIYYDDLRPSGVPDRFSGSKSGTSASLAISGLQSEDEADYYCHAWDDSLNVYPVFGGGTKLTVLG
On to B8, for which the values for the Kd in test [1] and in test [3] were 0.083 nM and 0.072 nM, respectively.

B9: TPP-23298 (antibody, human IgG4 S228P, lambda, V domains shown)
VH: EVQLLESGGGLVQPGGSLRLSCAASGFTFYSYAMSWVRQAPGKGLEWVSAIGTGGDTYYADSVKGRFTISRDNSKNTLYLQMNSLRAEDTAVYYCARRDDYTSRDAFDYWGQGTLVTVSS
VL: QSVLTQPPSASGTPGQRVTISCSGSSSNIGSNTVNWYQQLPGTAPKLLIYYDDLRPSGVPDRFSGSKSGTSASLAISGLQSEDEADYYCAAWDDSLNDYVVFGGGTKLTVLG
For B9, the Kd in test [1] amounted to 0.074 nM; in test [2] it was 0.03 nM; in test [3], 0.078 nM.

B10: TPP-23375 (antibody, human IgG4 S228P, lambda, V domains shown)
VH: EVQLLESGGGLVQPGGSLRLSCAASGFTFYSYAMSWVRQAPGKGLEWVSAIGYGGDTYYADSVKGRFTISRDNSKNTLYLQMNSLRAEDTAVYYCARRDDYTSRDAFDYWGQGTLVTVSS
VL: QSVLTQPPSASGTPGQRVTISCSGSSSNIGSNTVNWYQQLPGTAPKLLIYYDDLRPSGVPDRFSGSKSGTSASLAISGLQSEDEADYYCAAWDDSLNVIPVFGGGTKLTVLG
On to B10, for which the Kd in test [1] was determined as 0.042 nM; in test [3], 0.045 nM.

B11: TPP-23347 (antibody, human IgG4 S228P, lambda, V domains shown)
VH: EVQLLESGGGLVQPGGSLRLSCAASGFTFYSYAMLWVRQAPGKGLEWVSAIGTGGDTYYADSVKGRFTISRDNSKNTLYLQMNSLRAEDTAVYYCARRDDYTSRDAFDYWGQGTLVTVSS
VL: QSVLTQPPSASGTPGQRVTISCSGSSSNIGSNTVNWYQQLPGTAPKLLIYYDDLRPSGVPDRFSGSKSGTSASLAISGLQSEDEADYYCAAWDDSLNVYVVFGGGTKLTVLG
For B11, the Kd in test [1] turned out to be 0.055 nM; in test [3], 0.054 nM.

B12: TPP-23334 (antibody, human IgG4 S228P, lambda, V domains shown)
VH: EVQLLESGGGLVQPGGSLRLSCAASGFTFSSYAMSWVRQAPGKGLEWVSAIGYGGDTYYADSVKGRFTISRDNSKNTLYLQMNSLRAEDTAVYYCARRDDYTSRDAFDYWGQGTLVTVSS
VL: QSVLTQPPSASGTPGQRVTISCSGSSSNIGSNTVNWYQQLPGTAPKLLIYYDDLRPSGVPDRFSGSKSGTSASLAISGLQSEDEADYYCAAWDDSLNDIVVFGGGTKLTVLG
Take B12: the equilibrium dissociation constant (Kd) came out at 0.062 nM in test [1], 0.056 nM in test [2] and 0.015 nM in test [3].

B13: TPP-23341 (antibody, human IgG4 S228P, lambda, V domains shown)
VH: EVQLLESGGGLVQPGGSLRLSCAASGFTFSSYAMSWVRQAPGKGLEWVSAIGYGGDTYYADSVKGRFTISRDNSKNTLYLQMNSLRAEDTAVYYCARRDDYTSRDAFDYWGQGTLVTVSS
VL: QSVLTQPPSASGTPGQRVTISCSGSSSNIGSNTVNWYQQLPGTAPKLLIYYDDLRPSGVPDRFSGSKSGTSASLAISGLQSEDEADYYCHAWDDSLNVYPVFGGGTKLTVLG
For B13, the values for the Kd in test [1] and in test [3] were 0.092 nM and 0.087 nM, respectively.

B14: TPP-23346 (antibody, human IgG4 S228P, lambda, V domains shown)
VH: EVQLLESGGGLVQPGGSLRLSCAASGFTFYSYAMLWVRQAPGKGLEWVSAIGTGGDTYYADSVKGRFTISRDNSKNTLYLQMNSLRAEDTAVYYCARRDDYTSRDAFDYWGQGTLVTVSS
VL: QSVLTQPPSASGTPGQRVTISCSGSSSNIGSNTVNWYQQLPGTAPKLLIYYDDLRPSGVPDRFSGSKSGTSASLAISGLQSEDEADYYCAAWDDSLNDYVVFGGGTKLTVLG
For B14, the dissociation constant (Kd) was 0.064 nM in test [1] and 0.061 nM in test [3].

B15: TPP-23338 (antibody, human IgG4 S228P, lambda, V domains shown)
VH: EVQLLESGGGLVQPGGSLRLSCAASGFTFSSYAMSWVRQAPGKGLEWVSAIGYGGDTYYADSVKGRFTISRDNSKNTLYLQMNSLRAEDTAVYYCARRDDYTSRDAFDYWGQGTLVTVSS
VL: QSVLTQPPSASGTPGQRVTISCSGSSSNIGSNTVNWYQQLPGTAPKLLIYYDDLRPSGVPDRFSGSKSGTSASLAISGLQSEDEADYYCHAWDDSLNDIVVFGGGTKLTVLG
For B15, the Kd amounted to 0.045 nM in test [1] and 0.042 nM in test [3].

B16: TPP-23374 (antibody, human IgG4 S228P, lambda, V domains shown)
VH: EVQLLESGGGLVQPGGSLRLSCAASGFTFYSYAMSWVRQAPGKGLEWVSAIGYGGDTYYADSVKGRFTISRDNSKNTLYLQMNSLRAEDTAVYYCARRDDYTSRDAFDYWGQGTLVTVSS
VL: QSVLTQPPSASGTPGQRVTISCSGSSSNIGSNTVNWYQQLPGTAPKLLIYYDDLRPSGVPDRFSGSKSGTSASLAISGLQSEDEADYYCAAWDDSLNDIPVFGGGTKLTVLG
For B16, the Kd was 0.016 nM in test [1], 0.0033 nM in test [2] and < 0.003 nM in test [3].

The values are drawn from patent publication US20240254222A1 (Bayer, published 2024).
